Laboratory results published in patent US20140072983A1.

Tests used:
[1] = molecular target: biotin-CCR4 peptide conjugate (human); assay: ECL (MSD) bridging assay, biotin-CCR4 peptide on a streptavidin plate, His-CD16a detection; 20% pooled human serum
[2] = molecular target: biotin-CCR4 peptide conjugate (human); assay: ECL (MSD) bridging assay, biotin-CCR4 peptide on a streptavidin plate, His-CD16a detection; 5% pooled human serum
[3] = molecular target: biotin-CCR4 peptide conjugate (human); assay: ECL (MSD) bridging assay, biotin-CCR4 peptide on a streptavidin plate, His-CD16a detection; 0% PHS (assay buffer)

Measured: EC50 (read off the curve)

Chain of biotin-CCR4 peptide conjugate (human) (peptide, as listed by the source): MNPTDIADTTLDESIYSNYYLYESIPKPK

KW-0761 (antibody)
400 ng/mL: [1] | [2] | [3]
